The record followed here is WO2012172495A1 (dated 2012).

Assay [1] deals with T1, human TEM8 on transfected HEK-293 cells (293/Flag-hTEM8) (human, UniProt Q9H6X2 33-564).
T1 construct: also called HEK-293 transfected with human TEM8
The assay can be described thus: immunofluorescence microscopy, 10 ug/ml Fab on HEK-293 cells transfected with human TEM8, against untransfected HEK-293.

Assay [2] concerns the target T2, purified recombinant hTEM8(ED)-Fc fusion protein, biotinylated (human, UniProt Q9H6X2 33-321, biotinylated (site not stated)).
T2 construct: also called human TEM8-Fc
T2 sequence: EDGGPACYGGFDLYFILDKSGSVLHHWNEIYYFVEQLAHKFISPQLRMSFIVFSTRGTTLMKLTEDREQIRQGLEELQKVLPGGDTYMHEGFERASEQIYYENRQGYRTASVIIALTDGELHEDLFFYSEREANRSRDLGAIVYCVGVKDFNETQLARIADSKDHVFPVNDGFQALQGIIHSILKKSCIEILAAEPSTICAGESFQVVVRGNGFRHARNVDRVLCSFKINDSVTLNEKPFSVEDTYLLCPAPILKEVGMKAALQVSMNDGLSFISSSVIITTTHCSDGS
Briefly: ELISA, Fab on biotinylated human TEM8-Fc.

B1: L5 Fab fragment (Anti-human TEM8_cl4) (Fab, V domains shown)
VH: QVQLVESGGGLVQPGGSLRLSCAASGFTFNSYGLSWVRQAPGKGLEWVSNISSNGSYTYYADSVKGRFTISRDNSKNTLYLQMNSLRAEDTAVYYCARAGYGLFDVWGQGTLVTVSS
VL: DIELTQPPSVSVAPGQTARISCSGDKLREYYVHWYQQKPGQAPVLVIYGDNKRPSGIPERFSGSNSGNTATLTISGTQAEDEADYYCSSWAGSRSGTVFGGGTKLTVL
notes: Tested as a purified Fab fragment; The light chain is lambda
For the molecule B1, the binding result in assay [1] and in assay [2] was “binds” each time.
